Measurements: patent US20240132578A1

Columns and labels:
[1] = target: HIV-1 Env of isolate 92UG031 (pseudovirus) (HIV-1); experiment: cell-based or functional assay
[2] = target: HIV-1 Env of isolate 92UG037 (pseudovirus) (HIV-1); experiment: cell-based or functional assay
[3] = target: HIV-1 Env of isolate 92WR020 (pseudovirus) (HIV-1); experiment: cell-based or functional assay
[4] = target: HIV-1 Env of isolate 92WR021 (pseudovirus) (HIV-1); experiment: cell-based or functional assay
[5] = target: HIV-1 Env of isolate 92WR024 (pseudovirus) (HIV-1); experiment: cell-based or functional assay
[6] = target: HIV-1 Env of isolate 93IN905 (HIV-1); experiment: cell-based or functional assay
[7] = target: HIV-1 Env of isolate 93MW959 (HIV-1); experiment: cell-based or functional assay
[8] = target: HIV-1 Env of isolate 93UG077 (pseudovirus) (HIV-1); experiment: cell-based or functional assay
[9] = target: HIV-1 Env of isolate 93WR029 (pseudovirus) (HIV-1); experiment: cell-based or functional assay
[10] = target: HIV-1 Env of isolate 94UG103 (pseudovirus) (HIV-1); experiment: cell-based or functional assay
[11] = target: HIV-1 Env of isolate 97ZA012 (HIV-1); experiment: cell-based or functional assay
[12] = target: HIV-1 Env of isolate 98IN022 (HIV-1); experiment: cell-based or functional assay
[13] = target: HIV-1 Env of isolate JRCSF (HIV-1) (UniProt P20871); experiment: cell-based or functional assay
[14] = target: HIV-1 Env of isolate MGRM-AE-001 (subtype AE) (HIV-1); experiment: cell-based or functional assay
[15] = target: HIV-1 Env of isolate MGRM-Chronic-B-010 (HIV-1); experiment: cell-based or functional assay
[16] = target: HIV-1 Env of isolate MGRM-Chronic-B-011 (HIV-1); experiment: cell-based or functional assay
[17] = target: HIV-1 Env of isolate MGRM-Chronic-B-012 (HIV-1); experiment: cell-based or functional assay
[18] = target: HIV-1 Env of isolate MGRM-Chronic-B-017 (HIV-1); experiment: cell-based or functional assay
[19] = target: HIV-1 Env of isolate MGRM-Chronic-B-018 (HIV-1); experiment: cell-based or functional assay
[20] = target: HIV-1 Env of isolate MGRM-Chronic-B-020 (HIV-1); experiment: cell-based or functional assay
[21] = target: HIV-1 Env of isolate MGRM-Chronic-B-023 (HIV-1); experiment: cell-based or functional assay
[22] = target: HIV-1 Env of isolate MGRM-Chronic-B-024 (HIV-1); experiment: cell-based or functional assay
[23] = target: HIV-1 Env of isolate MGRM-D-001 (pseudovirus) (HIV-1); experiment: cell-based or functional assay
[24] = target: HIV-1 Env of isolate MGRM-F1-018 (HIV-1); experiment: cell-based or functional assay
[25] = target: HIV-1 Env of isolate NL43 (HIV-1); experiment: cell-based or functional assay
[26] = target: HIV-1 Env of isolate PVO.4 (HIV-1); experiment: cell-based or functional assay
[27] = target: HIV-1 Env of isolate QH0692.42 (HIV-1); experiment: cell-based or functional assay
[28] = target: HIV-1 Env of isolate SC422661.8 (HIV-1); experiment: cell-based or functional assay
[29] = target: HIV-1 Env of isolate SF162 (HIV-1) (UniProt P19550); experiment: cell-based or functional assay
[30] = target: HIV-1 Env of isolate THR0.18 (HIV-1); experiment: cell-based or functional assay
[31] = target: HIV-1 Env of isolate TRJ04551.58 (HIV-1); experiment: cell-based or functional assay
[32] = target: HIV-1 Env of isolate TRO.11 (HIV-1); experiment: cell-based or functional assay
[33] = target: HIV-1 Env of isolate VLGCB3 (HIV-1); experiment: cell-based or functional assay
[34] = target: HIV-1 Env of pseudovirus isolate MGRM-C-006 (clade C) (HIV-1); experiment: cell-based or functional assay
[35] = target: HIV-1 Env of pseudovirus isolate MGRM-C-024 (clade C) (HIV-1); experiment: cell-based or functional assay
[36] = target: HIV-1 Env of pseudovirus isolate MGRM-C-027 (clade C) (HIV-1); experiment: cell-based or functional assay
[37] = target: HIV-1 JR-CSF Env T394A (HIV-1 (isolate JR-CSF)) (UniProt P20871); experiment: cell-based or functional assay
[38] = target: JR-FL gp120 ΔV1/ΔV2 (HIV-1 JR-FL); experiment: ELISA, antigen-coated wells, mAb titrated; EC50 by nonlinear regression
[39] = target: WT JR-FL gp120 (HIV-1 JR-FL); experiment: as above

| Substance | IC50 (µg/mL), pseudovirus neutralization [1] | IC50 (µg/mL), pseudovirus neutralization [2] | IC50 (µg/mL), pseudovirus neutralization [3] | IC50 (µg/mL), pseudovirus neutralization [4] | IC50 (µg/mL), pseudovirus neutralization [5] | IC50 (µg/mL), pseudovirus neutralization [6] | IC50 (µg/mL), pseudovirus neutralization [7] | IC50 (µg/mL), pseudovirus neutralization [8] | IC50 (µg/mL), pseudovirus neutralization [9] | IC50 (µg/mL), pseudovirus neutralization [10] | IC50 (µg/mL), pseudovirus neutralization [11] | IC50 (µg/mL), pseudovirus neutralization [12] | IC50 (µg/mL), pseudovirus neutralization [13] | IC50, pseudovirus neutralization [14] | IC50 (µg/mL), pseudovirus neutralization [15] | IC50 (µg/mL), pseudovirus neutralization [16] | IC50 (µg/mL), pseudovirus neutralization [17] | IC50 (µg/mL), pseudovirus neutralization [18] | IC50 (µg/mL), pseudovirus neutralization [19] | IC50 (µg/mL), pseudovirus neutralization [20] | other results |
| --- | --- | --- | --- | --- | --- | --- | --- | --- | --- | --- | --- | --- | --- | --- | --- | --- | --- | --- | --- | --- | --- |
| 5114_A19 (PGT-128) (antibody) | > 50 µg/mL | 0.006 µg/mL | 0.005 µg/mL | 0.005 µg/mL | > 50 µg/mL | 0.009 µg/mL | 0.045 µg/mL | 0.014 µg/mL | > 50 µg/mL | 0.011 µg/mL | 0.019 µg/mL | 0.014 µg/mL | 0.003 µg/mL | 0.069 µg/mL | 0.004 µg/mL | 0.02 µg/mL | 0.026 µg/mL | > 50 µg/mL | 0.02 µg/mL | 0.007 µg/mL | IC50 (µg/mL), pseudovirus neutralization [21]: > 50 µg/mL; IC50 (µg/mL), pseudovirus neutralization [22]: > 50 µg/mL; IC50 (µg/mL), pseudovirus neutralization [23]: 0.138 µg/mL; IC50 (µg/mL), pseudovirus neutralization [24]: 0.023 µg/mL; IC50 (µg/mL), pseudovirus neutralization [25]: > 50 µg/mL; IC50 (µg/mL), pseudovirus neutralization [26]: 0.005 µg/mL; IC50 (µg/mL), pseudovirus neutralization [27]: 0.029 µg/mL; IC50 (µg/mL), pseudovirus neutralization [28]: 1.58 µg/mL; IC50 (µg/mL), pseudovirus neutralization [29]: 0.007 µg/mL; IC50 (µg/mL), pseudovirus neutralization [30]: > 50 µg/mL; IC50 (µg/mL), pseudovirus neutralization [31]: 0.019 µg/mL; IC50 (µg/mL), pseudovirus neutralization [32]: 0.018 µg/mL; IC50 (µg/mL), pseudovirus neutralization [33]: 0.012 µg/mL; IC50, pseudovirus neutralization [34]: 0.014 µg/mL; IC50, pseudovirus neutralization [35]: > 50 µg/mL; IC50, pseudovirus neutralization [36]: 0.081 µg/mL; Fold IC50 increase relative to wild-type (pseudovirus neutralization) [37]: 3 fold; EC50 [38]: 0.3 µg/mL; EC50 [39]: 0.1 µg/mL |
| 5136_H01 (PGT-131) (antibody) | > 50 µg/mL | 0.048 µg/mL | 0.168 µg/mL | 0.012 µg/mL | > 50 µg/mL | 0.177 µg/mL | > 50 µg/mL | > 50 µg/mL | > 50 µg/mL | 1.1 µg/mL | 1.81 µg/mL | > 50 µg/mL | 0.029 µg/mL | 4.8 µg/mL | 0.016 µg/mL | 6.47 µg/mL | 15.7 µg/mL | > 50 µg/mL | > 50 µg/mL | 0.053 µg/mL | IC50 (µg/mL), pseudovirus neutralization [21]: > 50 µg/mL; IC50 (µg/mL), pseudovirus neutralization [22]: > 50 µg/mL; IC50 (µg/mL), pseudovirus neutralization [23]: > 50 µg/mL; IC50 (µg/mL), pseudovirus neutralization [24]: > 50 µg/mL; IC50 (µg/mL), pseudovirus neutralization [25]: > 50 µg/mL; IC50 (µg/mL), pseudovirus neutralization [26]: > 50 µg/mL; IC50 (µg/mL), pseudovirus neutralization [27]: > 50 µg/mL; IC50 (µg/mL), pseudovirus neutralization [28]: > 50 µg/mL; IC50 (µg/mL), pseudovirus neutralization [29]: 0.025 µg/mL; IC50 (µg/mL), pseudovirus neutralization [30]: > 50 µg/mL; IC50 (µg/mL), pseudovirus neutralization [31]: 0.088 µg/mL; IC50 (µg/mL), pseudovirus neutralization [32]: 1.91 µg/mL; IC50 (µg/mL), pseudovirus neutralization [33]: > 50 µg/mL; IC50, pseudovirus neutralization [34]: 0.611 µg/mL; IC50, pseudovirus neutralization [35]: > 50 µg/mL; IC50, pseudovirus neutralization [36]: 0.065 µg/mL; Fold IC50 increase relative to wild-type (pseudovirus neutralization) [37]: 0.9 fold; EC50 [39]: 0.4 µg/mL |
